# B1: ld-IL2: Recombinant mouse IL2 (carrier-free; Biolegend), given as daily low-dose i.p. injection (protein, UniProt P04351 21-169, looked up)
# Interleukin-2: APTSSSTSSSTAEAQQQQQQQQQQQQHLEQLLMDLQELLSRMENYRNLKLPRMLTFKFYLPKQATELKDLQCLEDELGPLRHVLDLTQSKSFQLEDAENFISNIRVTVVKLKGSDNTFECQFDDESATVVDFLRRWIAFCQSIISTSPQ
# Key:
# [1] = test system: Treg cells and CD3+ T cells in dura, TG and DRG; assay: Immunohistochemistry of CD3+ T cells and EGFP+ Treg cells in dura, TG, DRG and cervical/medullary dorsal horn; format: in vivo, mouse
# Method: Tissue preparation, immunohistochemistry, and image analysis. Mice were euthanized with i.p. injection of barbiturate (200 mg/kg) and were transcardially perfused with warm 0.1 M phosphate buffered saline (pH 7.2) followed by cold 4% formaldehyde in 0.1 M phosphate buffer (pH 7.2) for fixation. Trigeminal ganglia, lumbar L4 DRG, and the tissues containing the cervical/medullary dorsal horn (from obex to C3 cervical spinal cord) were collected and sectioned at […] in the transverse plane, collected on Superfrost Plus glass slides in sequence and stored at […]
# The dura was carefully dissected from the skull using forceps and stained as whole mount. T cells were identified by the rat anti-CD3 antibody (clone 17A2, 1:200; eBioscience, San Diego, CA), and Treg cells were identified with the chicken anti-EGFP (1:1000; AVES Lab, Tigard, OR) antibody in tissues from DEREG mice. […] To quantify CD31 T cells and Treg cells on the dura, we took random, nonoverlapping images (10 per mouse) in areas adjacent to the middle meningeal artery (MMA). To quantify T cells and Treg cells in TG, DRG, and cervical/medullary dorsal horn, all cells on individual sections were counted, and the number was multiplied by 4 to obtain the total number of cells per ganglion in each mouse. […] Representative images were adjusted for contrast and brightness using the same parameter within individual experiments. No other manipulations were made to the images. Image analysis was performed with experimenters blinded to the experimental groups.
# [2] = test system: mTBI-induced facial mechanical hypersensitivity in mice; assay: Mouse model of mild traumatic brain injury-induced post-traumatic headache (facial mechanical thresholds, low-dose NTG priming); format: in vivo
# From the text: Mouse model of mild traumatic brain injury-induced post-traumatic headache. Adult Swiss Webster mice (30-35 g) were subjected to mTBI using a modified closed head weight-drop method. 43, 58 Briefly, mice were anesthetized with 3% isoflurane for 90 seconds and were placed chest down on a foam sponge (4-cm thickness and 0.062-g/cm3 density) directly underneath a hollow cylindrical tube (1.5-cm inner diameter) placed approximately 1 cm vertically over the mouse's head. To induce mTBI, a 30-g weight (1.3-cm diameter and 3.4-cm height) was dropped through the tube from a height of 80 cm, striking the center point between the ears once. All mice regained righting reflex within 2 minutes. […] Sham mice were anesthetized with 3% isoflurane for 90 seconds but not subjected to the weight drop. Facial mechanical thresholds were measured before and at various time points after mTBI. Daily ldIL2 or saline were administered 1 or 7 days after the sham or mTBI procedure. To reveal mTBI-induced hyperalgesia priming, mice received daily i.p. injections of NTG (0.1 mg/kg, i.p.) for 4 to 6 days, starting at 35 days after mTBI. Facial mechanical thresholds were measured between day 35 and 43 days after mTBI. Note that on the days that the mouse behaviors were tested, NTG and/or IL2 were always injected after completing the behavioral tests.
# Withdrawal responses to facial mechanical stimuli. The hair on mouse forehead (above and between 2 eyes) was shaved the day before testing. On the test day, the experimenter gently held the mouse on the palm with minimal restraint and applied the calibrated von Frey filament perpendicularly to the shaved skin, causing the filament to bend for 5 seconds. A positive response was determined by the following criteria as previously described: mouse vigorously stroked its face with the forepaw, head withdrawal from the stimulus, or head shaking (Elliott M B et al., Headache 2012; 52:966-84). The up-down paradigm was used to determine the 50% withdrawal threshold.
# [3] = test system: mTBI-induced memory deficit in mice; assay: Novel object recognition (NOR) assay after mTBI; format: in vivo, mouse; conditions: ld-IL2 between day 6 and 12 post-mTBI
# Method: The novel object recognition (NOR) assay was used to test the effect of mTBI and ld-IL2 treatment on cognition. On the training day, mice were allowed to explore two identical objects in an arena for 10 minutes. The next day, mice were allowed to explore the same space in the presence of the familiar object and a novel object to test long-term recognition memory. […] After mTBI, mice spent similar amounts of time exploring the familiar and the novel object, indicating a deficit in recognition memory (FIG. 12, mTBI+saline). […] Remarkably, the effect of ld-IL2 on memory deficit lasted for at least 20 days after the cessation of treatment.
# [4] = 15 days of ld-IL2, male DEREG mice
# [5] = daily ld-IL2 starting 1 day after mTBI for 9 days, female Swiss Webster
molecule,measurement,setting,value
B1,frequency of Treg cells among CD3+ cells in the dura,[1]; 15 days of ld-IL2 (5% without),20%
same,increase of the number of EGFP+ Treg cells in the TG,"[1]; 15 days of ld-IL2, female DEREG mice",9 fold
same,increase in the density of EGFP+ Treg cells in the dura surrounding the MMA,[1]; [4],4 fold
same,increase in the number of EGFP+ Treg cells in DRG,[1]; [4],4 fold
same,persistent facial mechanical hypersensitivity to repeated low-dose NTG after mTBI,"[2]; 3 weeks after cessation of ld-IL2, male Swiss Webster",failed to establish
same,duration of protection from mTBI-induced hyperalgesia priming,"[2]; 9 days of ld-IL2 treatment, male and female mice",at least 30 days
same,"facial mechanical threshold, % of the baseline value","[2]; after 3 days of ld-IL2 (day 10), started post-mTBI day 7 (about 26%), male Swiss Webster",87%
same,facial mechanical sensitivity of sham mice,"[2]; daily ld-IL2, male Swiss Webster",did not change
same,hyperalgesia priming revealed by repeated low-dose NTG,[2]; [5],completely prevented
same,mTBI-induced acute facial mechanical hypersensitivity,[2]; [5],completely prevented
same,mTBI-induced facial skin hypersensitivity at the end of ld-IL2 treatment,"[2]; day 15, ld-IL2 day 7 onward for 9 days, male Swiss Webster",fully reversed
same,duration of the effect on memory deficit after cessation of treatment,[3],at least 20 days
same,novel object recognition deficit after mTBI,[3],did not exhibit NOR deficit

# Source: patent US12702697B2, “Compositions and methods for treatment of headache disorders and neuropathic pain” (Washington University, priority 2019, dated 2026)
